Data published in the supplement of paper PMC6757056.
± gives the standard deviation of the averaged measurements.

B1: library; a variant is named by its letters at N, in order (parent)
chain: GCUGUCACCGGUGCUUGGUACGUUAUAUUCAGCCGGUCUGAUGAGUCUNNNNNNAGACGAAACAGC

How the values were obtained:
[1] = variants of: B1; assay: FACS-Seq fitted mean relative fluorescence mCherry/BFP without ligand (log10 relative fluorescence); HEK293T overexpressing SLC46A1; higher = higher reporter protein expression; details: without (6R,S)-folinic acid; ligand present: no
Outline: (§1)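 Fluorescence figures are normalized fitted normal means of sequenced bin counts. Enriched, lentivirally transduced HEK293T libraries with a ribozyme-switch mCherry reporter and EF1α-BFP were held 48 h with or without ligand, then sorted into 6 mCherry/BFP bins. PCR-amplified, barcoded genomic DNA from each bin was sequenced on MiSeq. Means of log10(mCherry/BFP) were scaled to five spiked-in control ribozymes.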

[2] = variants of: B1; assay: normalized RNA/DNA level without ligand (relative to sTRSVctl = 100) (log10 (% of sTRSVctl)); HEK293T overexpressing SLC46A1; higher = less ribozyme self-cleavage, higher mRNA level; details: without (6R,S)-folinic acid; ligand present: no
Outline: (§2)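 Ribozyme switch library plasmids with mCherry reporters (eGFP in certain ligand experiments) went into HEK293T cells at 4 µg per 6-well well. Where ligand was used, it was applied 1 h before transfection, and total RNA was extracted with EDTA 72 h later for reverse transcription, amplification, barcoding and sequencing. RNA level is the RNA-to-DNA read ratio normalized to a spiked-in non-cleaving sequence or to the leading sequences, then scaled and log-transformed. Scaling was ×100 with log10, the leading set comprised 25 sequences, and the cutoff was ≥100 DNA reads.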

[3] = variants of: B1; assay: FACS-Seq fitted mean relative fluorescence mCherry/BFP with ligand (log10 relative fluorescence); HEK293T overexpressing SLC46A1; ligand concentration (+) FACS-Seq: 6 mM; higher = higher reporter protein expression; details: with (6R,S)-folinic acid; ligand present: yes
Outline: as §1

[4] = variants of: B1; assay: normalized RNA/DNA level with ligand (relative to sTRSVctl = 100) (log10 (% of sTRSVctl)); HEK293T overexpressing SLC46A1; ligand concentration (+) RNA-Seq: 6 mM; higher = less ribozyme self-cleavage, higher mRNA level; details: with (6R,S)-folinic acid; ligand present: yes
Outline: as §2

Variant: UUUCCG
- FACS-Seq fitted mean (log10) [1]: 0.446 ± 0.012
- normalized RNA/DNA level without ligand (log10) [2]: 1.918 ± 0.012
- FACS-Seq fitted mean (log10) [3]: 0.493 ± 0.15
- normalized RNA/DNA level with ligand (log10) [4]: 1.99 ± 0.05

Variant: CUUGGC
- FACS-Seq fitted mean (log10) [1]: 0.556 ± 0.084
- normalized RNA/DNA level without ligand (log10) [2]: 2.062 ± 0.0022
- FACS-Seq fitted mean (log10) [3]: 0.651 ± 0.35
- normalized RNA/DNA level with ligand (log10) [4]: 2.04 ± 0.037

Variant: CUUGGG
- FACS-Seq fitted mean (log10) [1]: 0.49 ± 0.05
- normalized RNA/DNA level without ligand (log10) [2]: 1.9697 ± 0.0016
- FACS-Seq fitted mean (log10) [3]: 0.119 ± 0.14
- normalized RNA/DNA level with ligand (log10) [4]: 2.04 ± 0.03

Variant: CUUGGA
- FACS-Seq fitted mean (log10) [1]: 0.658 ± 0.053
- normalized RNA/DNA level without ligand (log10) [2]: 2.001 ± 0.019
- FACS-Seq fitted mean (log10) [3]: 0.547 ± 0.15
- normalized RNA/DNA level with ligand (log10) [4]: 1.99 ± 0.025

Variant: CAACGG
- normalized RNA/DNA level without ligand (log10) [2]: 1.9202 ± 0.00028
- normalized RNA/DNA level with ligand (log10) [4]: 1.976 ± 0.0039

Variant: CAACGU
- normalized RNA/DNA level without ligand (log10) [2]: 2.024 ± 0.0058
- normalized RNA/DNA level with ligand (log10) [4]: 2.037 ± 0.019

Variant: CAACGC
- normalized RNA/DNA level without ligand (log10) [2]: 2.025 ± 0.011
- normalized RNA/DNA level with ligand (log10) [4]: 2.02 ± 0.038

Variant: AAACGC
- normalized RNA/DNA level without ligand (log10) [2]: 1.996 ± 0.006
- normalized RNA/DNA level with ligand (log10) [4]: 2.01 ± 0.032

Variant: UUUCAG
- FACS-Seq fitted mean (log10) [1]: 0.263 ± 0.0041
- normalized RNA/DNA level without ligand (log10) [2]: 1.916 ± 0.013
- FACS-Seq fitted mean (log10) [3]: -0.0672 ± 0.0029
- normalized RNA/DNA level with ligand (log10) [4]: 2.011 ± 0.02

Variant: AUUAGG
- FACS-Seq fitted mean (log10) [1]: 0.125 ± 0.18
- normalized RNA/DNA level without ligand (log10) [2]: 1.9 ± 0.023
- FACS-Seq fitted mean (log10) [3]: 0.123 ± 0.074
- normalized RNA/DNA level with ligand (log10) [4]: 2.01 ± 0.028

Variant: AUUAGA
- FACS-Seq fitted mean (log10) [1]: 0.0629 ± 0.005
- normalized RNA/DNA level without ligand (log10) [2]: 1.965 ± 0.004
- FACS-Seq fitted mean (log10) [3]: -0.224 ± 0.063
- normalized RNA/DNA level with ligand (log10) [4]: 2.01 ± 0.033

Variant: GUGUGU
- FACS-Seq fitted mean (log10) [1]: 0.164 ± 0.1
- normalized RNA/DNA level without ligand (log10) [2]: 1.942 ± 0.0063
- FACS-Seq fitted mean (log10) [3]: 0.271 ± 0.083
- normalized RNA/DNA level with ligand (log10) [4]: 2.02 ± 0.036

Variant: GUGUGA
- FACS-Seq fitted mean (log10) [1]: 0.383 ± 0.041
- normalized RNA/DNA level without ligand (log10) [2]: 1.9667 ± 0.00054
- FACS-Seq fitted mean (log10) [3]: 0.136 ± 0.21
- normalized RNA/DNA level with ligand (log10) [4]: 2.038 ± 0.013

Variant: GUGUGC
- FACS-Seq fitted mean (log10) [1]: -0.0812 ± 0.0037
- normalized RNA/DNA level without ligand (log10) [2]: 1.758 ± 0.017
- FACS-Seq fitted mean (log10) [3]: 0.131 ± 0.14
- normalized RNA/DNA level with ligand (log10) [4]: 1.979 ± 0.0082

Variant: AAACUA
- normalized RNA/DNA level without ligand (log10) [2]: 1.9744 ± 0.0006
- normalized RNA/DNA level with ligand (log10) [4]: 2 ± 0.038

Variant: AAACUU
- normalized RNA/DNA level without ligand (log10) [2]: 2.007 ± 0.0031
- normalized RNA/DNA level with ligand (log10) [4]: 2.02 ± 0.024

Variant: AAACUC
- normalized RNA/DNA level without ligand (log10) [2]: 2.0456 ± 0.00044
- normalized RNA/DNA level with ligand (log10) [4]: 2.03 ± 0.049

Variant: GAAGCC
- normalized RNA/DNA level without ligand (log10) [2]: 2.022 ± 0.0083
- normalized RNA/DNA level with ligand (log10) [4]: 2.03 ± 0.047

Variant: AUUUGG
- FACS-Seq fitted mean (log10) [1]: 0.293 ± 0.04
- normalized RNA/DNA level without ligand (log10) [2]: 1.88 ± 0.0039
- FACS-Seq fitted mean (log10) [3]: 0.37 ± 0.04
- normalized RNA/DNA level with ligand (log10) [4]: 1.96 ± 0.023

Variant: GUGGCC
- FACS-Seq fitted mean (log10) [1]: 0.354 ± 0.0094
- normalized RNA/DNA level without ligand (log10) [2]: 2.02 ± 0.029
- FACS-Seq fitted mean (log10) [3]: 0.72 ± 0.12
- normalized RNA/DNA level with ligand (log10) [4]: 2.05 ± 0.023

Variant: UAAAUU
- normalized RNA/DNA level without ligand (log10) [2]: 1.984 ± 0.011
- normalized RNA/DNA level with ligand (log10) [4]: 2.017 ± 0.02

Variant: UAAAUC
- normalized RNA/DNA level without ligand (log10) [2]: 2.06 ± 0.0029
- normalized RNA/DNA level with ligand (log10) [4]: 2.06 ± 0.045

Variant: UAAAUA
- normalized RNA/DNA level without ligand (log10) [2]: 1.952 ± 0.014
- normalized RNA/DNA level with ligand (log10) [4]: 2 ± 0.034

Variant: GUGUAG
- FACS-Seq fitted mean (log10) [1]: 0.435 ± 0.018
- normalized RNA/DNA level without ligand (log10) [2]: 1.899 ± 0.0022
- FACS-Seq fitted mean (log10) [3]: 0.514 ± 0.18
- normalized RNA/DNA level with ligand (log10) [4]: 1.998 ± 0.016

Variant: GUGUAC
- FACS-Seq fitted mean (log10) [1]: -0.753 ± 0.24
- normalized RNA/DNA level without ligand (log10) [2]: 1.942 ± 0.0035
- FACS-Seq fitted mean (log10) [3]: -0.684 ± 0.34
- normalized RNA/DNA level with ligand (log10) [4]: 2.005 ± 0.0037

Variant: GUGUAA
- FACS-Seq fitted mean (log10) [1]: 0.21 ± 0.21
- normalized RNA/DNA level without ligand (log10) [2]: 1.957 ± 0.0042
- FACS-Seq fitted mean (log10) [3]: 0.383 ± 0.18
- normalized RNA/DNA level with ligand (log10) [4]: 2 ± 0.041

Variant: GAACAC
- normalized RNA/DNA level without ligand (log10) [2]: 1.998 ± 0.018
- normalized RNA/DNA level with ligand (log10) [4]: 2.014 ± 0.0037

Variant: GAACAU
- normalized RNA/DNA level without ligand (log10) [2]: 1.9736 ± 0.0012
- normalized RNA/DNA level with ligand (log10) [4]: 2.01 ± 0.035

Variant: CUGGGA
- FACS-Seq fitted mean (log10) [1]: 0.446 ± 0.08
- normalized RNA/DNA level without ligand (log10) [2]: 2.006 ± 0.014
- FACS-Seq fitted mean (log10) [3]: 0.348 ± 0.35
- normalized RNA/DNA level with ligand (log10) [4]: 2.03 ± 0.047

Variant: CAAGCC
- normalized RNA/DNA level without ligand (log10) [2]: 2.099 ± 0.01
- normalized RNA/DNA level with ligand (log10) [4]: 2.03 ± 0.046

Variant: GUGGGC
- FACS-Seq fitted mean (log10) [1]: 0.414 ± 0.04
- normalized RNA/DNA level without ligand (log10) [2]: 1.788 ± 0.0052
- FACS-Seq fitted mean (log10) [3]: 0.738 ± 0.17
- normalized RNA/DNA level with ligand (log10) [4]: 1.98 ± 0.024

Variant: GUGGGA
- FACS-Seq fitted mean (log10) [1]: -0.679 ± 0.016
- normalized RNA/DNA level without ligand (log10) [2]: 2.018 ± 0.0036
- FACS-Seq fitted mean (log10) [3]: -0.94 ± 0.38
- normalized RNA/DNA level with ligand (log10) [4]: 2.03 ± 0.025

Variant: GAAAGU
- normalized RNA/DNA level without ligand (log10) [2]: 1.9823 ± 0.00097
- normalized RNA/DNA level with ligand (log10) [4]: 2.02 ± 0.034

Variant: GAAAGC
- normalized RNA/DNA level without ligand (log10) [2]: 1.966 ± 0.0051
- normalized RNA/DNA level with ligand (log10) [4]: 2.0058 ± 0.0012

Variant: UUUGCU
- FACS-Seq fitted mean (log10) [1]: 0.805 ± 0.017
- normalized RNA/DNA level without ligand (log10) [2]: 2.043 ± 0.02
- FACS-Seq fitted mean (log10) [3]: 0.618 ± 0.24
- normalized RNA/DNA level with ligand (log10) [4]: 2.01 ± 0.084

Variant: UUUGCA
- FACS-Seq fitted mean (log10) [1]: 0.00421 ± 0.011
- normalized RNA/DNA level without ligand (log10) [2]: 1.981 ± 0.0053
- FACS-Seq fitted mean (log10) [3]: -0.275 ± 0.0052
- normalized RNA/DNA level with ligand (log10) [4]: 1.99 ± 0.032

Variant: UUUGCG
- FACS-Seq fitted mean (log10) [1]: 0.0287 ± 0.045
- normalized RNA/DNA level without ligand (log10) [2]: 1.867 ± 0.0062
- FACS-Seq fitted mean (log10) [3]: 0.0548 ± 0.11
- normalized RNA/DNA level with ligand (log10) [4]: 1.98 ± 0.042

Variant: CUUGAG
- FACS-Seq fitted mean (log10) [1]: 0.41 ± 0.091
- normalized RNA/DNA level without ligand (log10) [2]: 1.9276 ± 0.0002
- FACS-Seq fitted mean (log10) [3]: 0.534 ± 0.33
- normalized RNA/DNA level with ligand (log10) [4]: 2.005 ± 0.0023

Variant: CUUGAU
- FACS-Seq fitted mean (log10) [1]: 0.145 ± 0.1
- normalized RNA/DNA level without ligand (log10) [2]: 1.97 ± 0.018
- FACS-Seq fitted mean (log10) [3]: 0.602 ± 0.33
- normalized RNA/DNA level with ligand (log10) [4]: 2.008 ± 0.018

Variant: CUGUAU
- FACS-Seq fitted mean (log10) [1]: 0.306 ± 0.094
- normalized RNA/DNA level without ligand (log10) [2]: 1.981 ± 0.0073
- FACS-Seq fitted mean (log10) [3]: 0.479 ± 0.11
- normalized RNA/DNA level with ligand (log10) [4]: 2 ± 0.021

Variant: GUGUCA
- FACS-Seq fitted mean (log10) [1]: 0.425 ± 0.12
- normalized RNA/DNA level without ligand (log10) [2]: 2.008 ± 0.0044
- FACS-Seq fitted mean (log10) [3]: 0.477 ± 0.009
- normalized RNA/DNA level with ligand (log10) [4]: 2.03 ± 0.033

Variant: AUUAAA
- FACS-Seq fitted mean (log10) [1]: 0.22 ± 0.063
- normalized RNA/DNA level without ligand (log10) [2]: 1.974 ± 0.0062
- FACS-Seq fitted mean (log10) [3]: 0.296 ± 0.21
- normalized RNA/DNA level with ligand (log10) [4]: 1.992 ± 0.0089
